Source: publication PMC3860265 (Journal of molecular biology, 2013)
Where two headings read alike, the source gives them in different places.

B1: SR(RRM2) (domain or fragment)
chain: NRVVVSGLPPSGSWQDLKDHMREAGDVCYADVYRDGTGVVEFVRKEDMTYAVRKLDNTKFRSHEGETAYIRVKVD
B2: SR(188–235) (domain or fragment, UniProt Q07955 188-235, looked up)
chain: AYIRVKVDGPRSPSYGRSRSRSRSRSRSRSRSNSRSRSYSPRRSRGSP
B3: SR(188–220) (domain or fragment, UniProt Q07955 188-220, looked up)
chain: AYIRVKVDGPRSPSYGRSRSRSRSRSRSRSRSN
B4: SR(P200,228,235A) (natural protein, UniProt Q07955 1-248, looked up)
chain: MSGGGVIRGPAGNNDCRIYVGNLPPDIRTKDIEDVFYKYGAIRDIDLKNRRGGPPFAFVEFEDPRDAEDAVYGRDGYDYDGYRLRVEFPRSGRGTGRGGGGGGGGGAPRGRYGPPSRRSENRVVVSGLPPSGSWQDLKDHMREAGDVCYADVYRDGTGVVEFVRKEDMTYAVRKLDNTKFRSHEGETAYIRVKVDGPRSASYGRSRSRSRSRSRSRSRSNSRSRSYSARRSRGSARYSPRHSRSRSRT
B5: SR(RRM1-2) (domain or fragment)
chain: MSGGGVIRGPAGNNDCRIYVGNLPPDIRTKDIEDVFYKYGAIRDIDLKNRRGGPPFAFVEFEDPRDAEDAVYGRDGYDYDGYRLRVEFPRSGRGTGRGGGGGGGGGAPRGRYGPPSRRSENRVVVSGLPPSGSWQDLKDHMREAGDVCYADVYRDGTGVVEFVRKEDMTYAVRKLDNTKFRSHEGETAYIRVKVD
B6: SR(ΔRRM2) (domain or fragment)
chain: MSGGGVIRGPAGNNDCRIYVGNLPPDIRTKDIEDVFYKYGAIRDIDLKNRRGGPPFAFVEFEDPRDAEDAVYGRDGYDYDGYRLRVEFPRSGRGTGRGGGGGGGGGAPRGRYGPPSRRSEGPRSPSYGRSRSRSRSRSRSRSRSNSRSRSYSPRRSRGSPRYSPRHSRSRSRT
B7: SR(188–228) (domain or fragment, UniProt Q07955 188-228, looked up)
chain: AYIRVKVDGPRSPSYGRSRSRSRSRSRSRSRSNSRSRSYSP

Legend:
Experiment in all cases: kinase competition assay
SRPK1 [1] = target: T1, SRPK1 (UniProt Q96SB4 1-655)
CLK1 [2] = target: T2, CLK1 (mouse, UniProt P22518 1-483)
SRPK1 [3] = target: T1, SRPK1; remark: listed apart in the source
CLK1 [4] = target: T2, CLK1; remark: listed apart in the source
SRPK1 [5] = target: T1, SRPK1; remark: listed apart in the source
CLK1 [6] = target: T2, CLK1; remark: listed apart in the source
SRPK1 [7] = target: T1, SRPK1; remark: listed apart in the source

T1 sequence (Q96SB4 whole entry): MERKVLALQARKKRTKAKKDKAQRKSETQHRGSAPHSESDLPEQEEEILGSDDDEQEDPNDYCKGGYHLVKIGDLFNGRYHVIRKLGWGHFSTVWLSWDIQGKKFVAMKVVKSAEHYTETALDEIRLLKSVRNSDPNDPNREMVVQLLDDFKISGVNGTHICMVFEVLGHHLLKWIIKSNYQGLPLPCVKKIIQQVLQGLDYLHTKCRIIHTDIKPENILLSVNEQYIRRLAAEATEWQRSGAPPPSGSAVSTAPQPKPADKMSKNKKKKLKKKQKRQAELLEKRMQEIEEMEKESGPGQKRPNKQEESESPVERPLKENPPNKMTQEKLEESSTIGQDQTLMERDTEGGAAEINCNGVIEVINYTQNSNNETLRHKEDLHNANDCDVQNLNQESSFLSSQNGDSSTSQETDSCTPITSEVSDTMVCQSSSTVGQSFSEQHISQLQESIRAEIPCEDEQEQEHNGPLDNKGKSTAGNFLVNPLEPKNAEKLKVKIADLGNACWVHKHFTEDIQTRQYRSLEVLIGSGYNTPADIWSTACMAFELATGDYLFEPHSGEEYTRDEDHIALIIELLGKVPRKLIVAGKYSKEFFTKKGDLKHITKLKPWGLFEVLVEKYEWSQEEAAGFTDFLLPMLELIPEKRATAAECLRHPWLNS
T2 sequence (P22518 whole entry): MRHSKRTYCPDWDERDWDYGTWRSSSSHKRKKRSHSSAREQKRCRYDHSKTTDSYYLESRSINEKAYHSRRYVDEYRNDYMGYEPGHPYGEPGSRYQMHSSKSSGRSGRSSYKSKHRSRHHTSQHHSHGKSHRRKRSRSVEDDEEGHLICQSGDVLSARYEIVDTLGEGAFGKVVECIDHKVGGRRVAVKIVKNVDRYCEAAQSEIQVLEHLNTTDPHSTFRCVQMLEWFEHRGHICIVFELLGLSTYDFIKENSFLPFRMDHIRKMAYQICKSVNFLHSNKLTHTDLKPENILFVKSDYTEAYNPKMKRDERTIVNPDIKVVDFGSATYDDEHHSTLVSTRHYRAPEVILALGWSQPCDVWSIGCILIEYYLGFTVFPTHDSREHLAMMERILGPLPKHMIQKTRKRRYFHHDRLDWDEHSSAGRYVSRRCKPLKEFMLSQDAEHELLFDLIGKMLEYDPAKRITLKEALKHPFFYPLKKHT

Binder	Ki (CLK1 [2]) [nM]	appKI (CLK1 [2]) [nM]	Ki (SRPK1 [3]) [nM]	appKI (SRPK1 [3]) [nM]	other results
B1					Ki (SRPK1 [1]): 2900 ± 500 nM
B2	120 ± 10	180 ± 20	110 ± 7	170 ± 10	
B3	290 ± 20	440 ± 40	350 ± 200	520 ± 40	
B4					Ki (CLK1 [4]): 130 ± 20 nM; appKI (CLK1 [4]): 440 ± 70 nM; Ki (SRPK1 [5]): 33 ± 3 nM; appKI (SRPK1 [5]): 80 ± 8 nM
B5					Ki (SRPK1 [1]): 170 ± 30 nM
B6					Ki (CLK1 [6]): 130 ± 30 nM; Ki (SRPK1 [7]): 300 ± 100 nM
B7	240 ± 30	370 ± 40	190 ± 30	280 ± 50	
